Source: paper PMC4197836
Like-named read-outs stand apart in the source and are kept apart here.

Experiments:
Assay in all cases: AlphaScreen or HTRF
[1] = target: His6-tagged MLV IN (Moloney Murine Leukemia Virus)
[2] = target: His6-tagged MLV IN (Moloney Murine Leukemia Virus); remark: listed apart in the source
[3] = target: GST-tagged mBRD4ET (aa 601-685) (mouse) (UniProt Q9ESU6)

Chain of His6-tagged MLV IN (Moloney Murine Leukemia Virus) (P03355 1331-1738 limits assumed): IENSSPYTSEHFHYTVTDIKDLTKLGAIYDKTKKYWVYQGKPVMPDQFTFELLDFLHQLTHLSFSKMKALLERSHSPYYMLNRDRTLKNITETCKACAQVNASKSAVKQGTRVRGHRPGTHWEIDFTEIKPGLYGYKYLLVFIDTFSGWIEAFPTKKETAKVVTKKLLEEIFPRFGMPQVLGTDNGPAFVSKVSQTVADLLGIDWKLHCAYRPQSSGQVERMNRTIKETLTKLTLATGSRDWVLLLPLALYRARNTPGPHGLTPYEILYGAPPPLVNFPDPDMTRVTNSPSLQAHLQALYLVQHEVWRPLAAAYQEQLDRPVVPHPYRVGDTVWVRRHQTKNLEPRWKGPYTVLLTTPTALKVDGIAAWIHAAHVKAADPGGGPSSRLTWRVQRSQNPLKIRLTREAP

Row | Substance | Kd [1] [nM] | Kd [2] [nM] | Kd [3] [nM]
1 | MBP-fused BRD2 ET domain (domain or fragment) | 0.6 | – | –
2 | MBP-fused BRD4 ET domain (domain or fragment) | 0.41 | – | –
3 | MBP-fused BRD3 ET domain (domain or fragment) | 0.97 | – | –
4 | GST-tagged mBRD4ET (aa 601-685) (from UniProt Q9ESU6 601-685) (domain or fragment) | 8.56 | 58.7 | –
5 | His6-tagged MLV IN (enzyme) | – | – | 56.7
6 | GST-tagged mBRD4_(ETSEED) (aa 601-721) (from UniProt Q9ESU6 601-721) (domain or fragment) | 58.7 | 8.56 | –
